The labels stand for the following.
B1: CDS2 (parent)
chain: IHSIALSTFASLIGPFGGFFASGF

This is an account of results in the supplement of paper PMC10567573.
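Further: lentivirally expressed fusions sorted by FACS into six bins by GFP to DsRed ratio, PSI derived from sequencing read proportions per bin multiplied by bin number.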

In this data set the parent is B1. As to the kind of experiment: protein stability index of a GFP-peptide fusion (GPS, HEK-293T) (PSI 1-6); higher = more stable. The note with it: c terminus: a fixed tail appended.
Consider IHSIALSTFASLIGHFGGFFASGF [P15H], for which the protein stability index was 2.17.
For IHSIALSTFASLIGIFGGFFASGF [P15I], the protein stability index amounted to 4.59.
Regarding IHSIALSTFASLIGCFGGFFASGF [P15C], the protein stability index came to 2.62.
Take IHSIALSTFASLIGEFGGFFASGF [P15E]: the protein stability index was 3.88.
As for IHSIALSTFASLIGRFGGFFASGF [P15R], the figure is 1.88; as for IHSIALSTFASLIGYFGGFFASGF [P15Y], 1.75.
Turning to IHSIALSTFASLIGQFGGFFASGF [P15Q], the protein stability index worked out at 3.43.
For IHSIALSTEASLIGPFGGFFASGF [F9E], the protein stability index came to 1.92.
The same measure for IHSIALSTSASLIGPFGGFFASGF [F9S]: 3.33; for IHSIALSTRASLIGPFGGFFASGF [F9R]: 3.28.
Turning to IHSIALSTHASLIGPFGGFFASGF [F9H], the protein stability index was 1.51.
As for IHSIALSTFASLIGPTGGFFASGF [F16T], the protein stability index is 2.92.
On to IHSIALSTFASLIGPLGGFFASGF [F16L], for which the protein stability index is 1.91.
As for IHSIALSTFASLIGPYGGFFASGF [F16Y], the protein stability index amounted to 2.37.
On to IHSIALSTFASLIGPIGGFFASGF [F16I], for which the protein stability index turned out to be 4.33.
IHSIALSTFASLIGPHGGFFASGF [F16H]: the protein stability index is 2.84.
For the variant IHSIALSTFASLIGPKGGFFASGF [F16K], the protein stability index worked out at 3.11.
Turning to IHSIALSTFASLIGPMGGFFASGF [F16M], the protein stability index turned out to be 3.82.
For the variant IHSIALSTFASLIGPPGGFFASGF [F16P], the protein stability index came to 2.02.
As for IHSIMLSTFASLIGPFGGFFASGF [A5M], the figure is 2.14.
For the variant IHSILLSTFASLIGPFGGFFASGF [A5L], the protein stability index stood at 2.15.
For the variant IHSIILSTFASLIGPFGGFFASGF [A5I], the protein stability index stood at 3.04.
The same measure for IHSIWLSTFASLIGPFGGFFASGF [A5W]: 2.77; for IHSICLSTFASLIGPFGGFFASGF [A5C]: 3.88.
As for IHSIRLSTFASLIGPFGGFFASGF [A5R], the figure is 3.68; as for IHSIALSTFASLIGPFGGFVASGF [F20V], 3.06.
As for IHSIALSTFASLIGPFGGFPASGF [F20P], the figure is 3.39; as for IHSIALSTFASLIGPFGGFHASGF [F20H], 2.66; as for IHSIALSTFASLIGPFGGFYASGF [F20Y], 1.92.
Consider IHSIALSTFASLIGPFGGFMASGF [F20M], for which the protein stability index came to 2.88.
Take IHSIALSTFASLIGPFGGFSASGF [F20S]: the protein stability index is 2.52.
As for IHSIALSTFASLIAPFGGFFASGF [G14A], the figure is 3.37; as for IHSIALSTFASLIQPFGGFFASGF [G14Q], 2.15.
For IHSIALSTFASLIDPFGGFFASGF [G14D], the protein stability index turned out to be 3.05.
Consider IHSIALSTFASLIYPFGGFFASGF [G14Y], for which the protein stability index turned out to be 2.64.
For IHSIALSTFASLIVPFGGFFASGF [G14V], the protein stability index was found to be 2.64.
As to IHSIALSTFASLIWPFGGFFASGF [G14W], the protein stability index was found to be 1.74.
IHSIALSTFASLICPFGGFFASGF [G14C]: the protein stability index was 2.05.
As to IHSIALSTFASLITPFGGFFASGF [G14T], the protein stability index was 2.79.
On to IHSIALSTFASLINPFGGFFASGF [G14N], for which the protein stability index turned out to be 1.69.
For the variant IHSIALSTFASLYGPFGGFFASGF [I13Y], the protein stability index is 2.89.
IHSIALSTFASLHGPFGGFFASGF [I13H]: the protein stability index was 3.22.
Take IHSIALSTFASLEGPFGGFFASGF [I13E]: the protein stability index worked out at 2.6.
With IHSIALSTFASLQGPFGGFFASGF [I13Q], the protein stability index amounted to 2.45.
The same measure for IHSIALSTFASLFGPFGGFFASGF [I13F]: 3.52.
With IHSIALSTFASLGGPFGGFFASGF [I13G], the protein stability index was 2.48.
Turning to IHSIALSTFASLPGPFGGFFASGF [I13P], the protein stability index stood at 2.92.
Consider IHSIALSTFASLWGPFGGFFASGF [I13W], for which the protein stability index turned out to be 3.97.
The same measure for IHSIAESTFASLIGPFGGFFASGF [L6E]: 4.38; for IHSIAGSTFASLIGPFGGFFASGF [L6G]: 2.54.
IHSIAYSTFASLIGPFGGFFASGF [L6Y]: the protein stability index came out at 3.33.
As for IHSIARSTFASLIGPFGGFFASGF [L6R], the protein stability index amounted to 1.67.
Turning to IHSIACSTFASLIGPFGGFFASGF [L6C], the protein stability index stood at 2.06.
Take IHSIAISTFASLIGPFGGFFASGF [L6I]: the protein stability index came to 3.38.
In the case of IHSIAPSTFASLIGPFGGFFASGF [L6P], the protein stability index turned out to be 2.23.
The same measure for IHSIADSTFASLIGPFGGFFASGF [L6D]: 3.13; for IHSIANSTFASLIGPFGGFFASGF [L6N]: 2.62; for IHSIAVSTFASLIGPFGGFFASGF [L6V]: 3.03.
As for IHSIAWSTFASLIGPFGGFFASGF [L6W], the protein stability index came out at 2.43.
Take IHSIALSTFASLIGPFIGFFASGF [G17I]: the protein stability index was 2.98.
As for IHSIALSTFASLIGPFAGFFASGF [G17A], the figure is 2.41.
For the variant IHSIALSTFASLIGPFCGFFASGF [G17C], the protein stability index was 3.58.
On to IHSIALSTFASLIGPFKGFFASGF [G17K], for which the protein stability index came out at 2.22.
For the variant IHSIALSTFASLIGPFMGFFASGF [G17M], the protein stability index worked out at 2.12.
In the case of IHSIALSTFASLIGPFLGFFASGF [G17L], the protein stability index worked out at 3.48.
The same measure for IHSIALSTFASLIGPFSGFFASGF [G17S]: 4.37; for IHSIALSTFASLIGPFQGFFASGF [G17Q]: 2.83; for IHSIALSTFASLIGPFGGFFASGS [F24S]: 2.63.
In the case of IHSIALSTFASLIGPFGGFFASGQ [F24Q], the protein stability index came out at 2.45.
Consider IHSIALSTFASLIGPFGGFFASGH [F24H], for which the protein stability index was 3.27.
IHSIALSTFASLIGPFGGFFASGA [F24A]: the protein stability index was 2.18.
Turning to IHSIALSTFASLIGPFGGFFASGI [F24I], the protein stability index was determined as 2.91.
As for IHSIALSTFASLIGPFGGFFASGC [F24C], the protein stability index was 4.83.
Take IHSIALSTFASLIGPFGGFFASGL [F24L]: the protein stability index stood at 3.68.
The same measure for IHSIALSTFASLIGPFGGFFASGY [F24Y]: 2.52; for IHSIALSTFGSLIGPFGGFFASGF [A10G]: 3.32.
Turning to IHSIALSTFISLIGPFGGFFASGF [A10I], the protein stability index is 4.24.
Regarding IHSIALSTFLSLIGPFGGFFASGF [A10L], the protein stability index was found to be 2.98.
As to IHSIALSTFSSLIGPFGGFFASGF [A10S], the protein stability index was found to be 2.6.
The same measure for IHSIALSTFCSLIGPFGGFFASGF [A10C]: 2.97.
As for IHSIALSTFPSLIGPFGGFFASGF [A10P], the figure is 2.39.
Consider IHSIALSTFTSLIGPFGGFFASGF [A10T], for which the protein stability index was 4.58.
For the variant IHSIALSTFESLIGPFGGFFASGF [A10E], the protein stability index turned out to be 3.6.
The same measure for IHSIALSTFKSLIGPFGGFFASGF [A10K]: 1.79; for IHSIALSTFASLIGPFGRFFASGF [G18R]: 3.42; for IHSIALSTFASLIGPFGKFFASGF [G18K]: 2.86.
In the case of IHSIALSTFASLIGPFGIFFASGF [G18I], the protein stability index worked out at 3.04.
For the variant IHSIALSTFASLIGPFGVFFASGF [G18V], the protein stability index was found to be 3.83.
Consider IHSIALSTFASLIGPFGNFFASGF [G18N], for which the protein stability index worked out at 2.01.
As for IHSIALSTFASLIGPFGFFFASGF [G18F], the figure is 3.59.
Take IHSIALSTFASLIGPFGEFFASGF [G18E]: the protein stability index was 2.89.
Turning to IHSIALSTFASLIGPFGQFFASGF [G18Q], the protein stability index was determined as 3.3.
Turning to IHSIALSTFASLIGPFGYFFASGF [G18Y], the protein stability index was determined as 3.62.
As for IHSIALSTFASLIGPFGTFFASGF [G18T], the protein stability index came to 3.73.
